# Laboratory results published in US20240358849A1 (SUZHOU FUSE BIOSCIENCES, published 2024).
# Numbering of substitutions follows the chain as printed. Numbers in names are those of the source.
# T1: IL-2hex, mutant human IL-2 (deltaA1/T3A/F42A/Y45A/L72G/C125S) (human, UniProt P60568 22-153)
# T1 chain: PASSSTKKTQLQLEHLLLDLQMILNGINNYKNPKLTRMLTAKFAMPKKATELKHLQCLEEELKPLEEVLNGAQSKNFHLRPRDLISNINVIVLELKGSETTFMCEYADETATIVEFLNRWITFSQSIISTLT
# B1: 872-5 VH Q96L (antibody, V domains shown)
# VH: EVQLVESGGGLVQPGGSLRLSCAASGFTFRGYIMSWVRQAPGKGLEWVSWISPEGSRTGYADSVKGRFTISRDNSKNTLYLQMNSLRAEDTAVYYCARLLYGTWFDYWGQGTLVTVSS
# VL: DIQMTQSPSSLSASVGDRVTITCRASQSISSYLNWYQQKPGKAPKLLIYAASSLQSGVPSRFSGSGSGTDFTLTISSLQPEDFATYYCQQATLLLPTFGQGTKVEIKR
# B2: 872-5 VH S52G:VL A91G/T92R (antibody, V domains shown)
# VH: B1 VH with S52G, L100Q
# VL: DIQMTQSPSSLSASVGDRVTITCRASQSISSYLNWYQQKPGKAPKLLIYAASSLQSGVPSRFSGSGSGTDFTLTISSLQPEDFATYYCQQGRLLLPTFGQGTKVEIK
# notes: BLI per 6.1.3
# B3: 872-5 VL A91G (antibody, V domains shown)
# VH: B1 VH with L100Q
# VL: B1 VL with A91G
# notes: BLI per 6.1.3 (monovalent Fab-Fc)
# B4: 872-5 VH S52G (antibody, V domains shown)
# VH: B1 VH with S52G, L100Q
# VL: B1 VL
# notes: BLI per 6.1.3
# B5: 872-5 VH S52G/Q96L:VL A91G/T92R (antibody, V domains shown)
# VH: B1 VH with S52G
# VL: B1 VL with A91G, T92R
# notes: BLI per 6.1.3
# B6: 872-5 VL A91G/T92R (antibody, V domains shown)
# VH: B1 VH with L100Q
# VL: B1 VL with A91G, T92R
# notes: BLI per 6.1.3
# B7: 872-5 VH S52G/Q96L/VL T92R (antibody, V domains shown)
# VH: B1 VH with S52G
# VL: B1 VL with T92R
# notes: BLI per 6.1.3
# B8: 872-5 VH Q96L:VL A91G/T92R (antibody, V domains shown)
# VH: B1 VH
# VL: B1 VL with A91G, T92R
# notes: BLI per 6.1.3
# B9: 872-5 VH S52G/Q96L (antibody, V domains shown)
# VH: B1 VH with S52G
# VL: B1 VL
# notes: BLI per 6.1.3
# B10: 872-5 VL T92R (antibody, V domains shown)
# VH: B1 VH with L100Q
# VL: B1 VL with T92R
# notes: BLI per 6.1.3
# B11: D029HV4LV2 (bispecific antibody, V domains shown)
# VH: EVQLVESGGGLVQPGGSLRLSCAASGFTFSRFFMSWVRQAPGKGLEWVSWIGPSGLYTDYADSVKGRFTISRDNSKNTLYLQMNSLRAEDTAVYYCARSQYGRYYSPDYYFDYWGQGTLVTVSS
# VL: DIQMTQSPSSLSASVGDRVTITCRASGALGFYLNWYQQKPGKAPKLLIYAASSLSSGVPSRFSGSGSGTDFTLTISSLQPEDFATYYCQQGRTYPFTFGQGTKVEIKR
# notes: also called Rev1-Q27G/P94Y/L96F:H1V9
# B12: D029 HV2LV4 (bispecific antibody, V domains shown)
# VH: B11 VH with S30T, R31W
# VL: B11 VL with F96L
# notes: also called Rev1-Q27G:P94Y/S55L:S32F
# B13: D029 HV2LV1 (bispecific antibody, V domains shown)
# VH: B11 VH with S30T, R31W
# VL: B11 VL with G27Q, Y94P, F96L
# notes: also called Rev1/S55L:S32F
# B14: D029 HV3LV4 (bispecific antibody, V domains shown)
# VH: B11 VH with S30R, R31W
# VL: B11 VL with F96L
# notes: also called D029-Rev1:Q27G:P94Y/S55L:T30R:S32F
# B15: D029 HV2LV2 (bispecific antibody, V domains shown)
# VH: B11 VH with S30T, R31W
# VL: B11 VL
# notes: also called Rev1-Q27G:P94Y:L96F/S55L:S32F
# B16: D029 HV3LV2 (bispecific antibody, V domains shown)
# VH: B11 VH with S30R, R31W
# VL: B11 VL
# notes: also called D029L-Rev1:Q27G:P94Y:L96F/S55L:T30R:S32F
# B17: D029 HV5LV1 (bispecific antibody, V domains shown)
# VH: B11 VH with S30R, R31W, F32A
# VL: B11 VL with G27Q, Y94P, F96L
# notes: also called Rev1/S55L:T30R:S32A
# B18: Rev1-Q27G/P94Y/L96F:H1V10 (bispecific antibody, V domains shown)
# VH: B11 VH with F32S
# VL: B11 VL
# notes: H1V10 = D029 VH with T30S:W31R:S55L; also called H1V10 with D029LV2
# B19: D029HV6LV2 (bispecific antibody, V domains shown)
# VH: B11 VH with S30T, R31W, F32A
# VL: B11 VL
# notes: also called Rev1-Q27G:P94Y:L96F/S55L:S32A
# B20: Rev1-Q27G/P94Y/L96F:H1V11 (bispecific antibody, V domains shown)
# VH: B11 VH with S30T, R31Y
# VL: B11 VL
# notes: H1V11 = D029 VH with W31Y:S32F:S55L; also called H1V11 with D029LV2
# B21: anti-IL-2/anti-FAP two-in-one antibody D029 (bispecific antibody, V domains shown)
# VH: B11 VH with S30T, R31W, F32S, L56S
# VL: B11 VL with G27Q, A28D, L29G, F31N, A50G, S53T, S55Y, Y94P, F96L
# B22: D029 HV3LV1 (bispecific antibody, V domains shown)
# VH: B11 VH with S30R, R31W
# VL: B11 VL with G27Q, Y94P, F96L
# notes: also called D029L-Rev1/S55L:T30R:S32F; Rev1/S55L:T30R:S32F
# Target: T2, human Fibroblast Activation Protein (FAP), soluble antigen (human, UniProt Q12884 26-760, biotinylated when immobilized on streptavidin sensors)
# T2 construct: also called hFAP; biotinylated FAP
# Experiment: BLI per 6.1.3, human FAP;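 also: biolayer interferometry with immobilized antigen on sensors, antibody association up to 240 s then dissociation up to 420 s, reference-subtracted, global 1:1 fit with unlinked Rmax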
Binder,Kd [nM],koff [s⁻¹],kon [M⁻¹ s⁻¹]
B1,1.5,0.000794,542000
B2,2.2,0.00148,673000
B3,0.78,0.00102,1.3e+06
B4,2.2,0.00138,642000
B5,0.241,0.000178,737000
B6,0.398,0.000411,1.03e+06
B7,0.087,7.61e-05,878000
B8,0.707,0.000571,812000
B9,0.251,0.000161,645000
B10,1.6,0.001,614000

# Target: T2, human Fibroblast Activation Protein …
# Experiment: Affinity (nM), Table 13B
row,Binder,Kd [nM]
1,B11,0.51
2,B12,1.5
3,B13,1.8
4,B14,2.3
5,B15,2
6,B16,100
7,B17,3.6
8,B18,10
9,B19,62
10,B20,0.51

# Target: T1, IL-2hex, mutant human IL-2 …
# Experiment: Affinity (nM), Table 13B
row,Binder,Kd [nM]
1,B21,431
2,B11,4500
3,B12,1590
4,B22,237
5,B13,1100
6,B14,528
7,B15,419
8,B16,100
9,B17,331
10,B18,700
11,B19,199
12,B20,600

# Target: T1, IL-2hex, mutant human IL-2 …
# Experiment: BLI per 6.1.3; column head IL-2 KD
row,Binder,Kd [nM]
1,B21,431
2,B12,1590
3,B22,427
4,B13,528
5,B14,1100
6,B15,419
7,B16,331
8,B17,100

# Target: T2, human Fibroblast Activation Protein …
# Experiment: BLI per 6.1.3
row,Binder,Kd [nM]
1,B12,1.53
2,B22,1.79
3,B13,2.31
4,B14,1.8
5,B15,1.98
6,B16,3.58
7,B17,> 100

# Target: T1, IL-2hex, mutant human IL-2 …
# Experiment: cell-based or functional assay
row,Binder,EC50 of HEK-Blue IL2 assay (pM) with HEK 293T; variant as masking moiety of a configuration 3 immunoconjugate [pM]
1,B21,1510
2,B11,6100
3,B12,5140
4,B22,7380
5,B13,9260
6,B14,4120
7,B15,6060
8,B16,5330
9,B17,5630
10,B18,14800
11,B19,4820
12,B20,9370

# Target: human FAP expressed on cells (HEK 293T-hFAP-E5; ExpiCHO-hFAP) (human, UniProt Q12884 1-760)
# Experiment: cell-based or functional assay
row,Binder,EC50 of HEK-Blue IL2 assay (pM) with HEK 293T-hFAP-E5; variant as masking moiety of a configuration 3 immunoconjugate [pM]
1,B21,56
2,B11,40
3,B12,43
4,B22,35
5,B13,78
6,B14,208
7,B15,27
8,B16,186
9,B17,41
10,B18,117
11,B19,145
12,B20,57
